Among the data in PMC3883574 are stoichiometry N values, retold here.

In this test the target is double-domain activation-associated secreted protein (ASP) (Cooperia oncophora (endogenous in adult worms)). Put plainly: reducing against non-reducing SDS-PAGE, bands identified by MALDI-TOF MS.

Substance “double-domain activation-associated secreted protein (ASP) (natural protein)” yielded a stoichiometry N of 2.
